In publication PMC3257533:

Target: paclitaxel-stabilized microtubules
Experiment: co-sedimentation

Kd: 230 nM
B1: MBP-Nsk1 (recombinant maltose-binding protein-Nsk1, wild type) (natural protein)
chain: MAYKLSLSAVEPLLIFPAAPFSTKKEKSTFQNNLISSDVFSSALKPLSPLKSLVADFSTHSNPSKDNQLISPPKINHREFLNEEKESDTQTRYLKQLINICNSPSKNHETSLSPSKSTIDNNERKLDNEIDNYKHDVKYSPYKGQGKTSNPSQGTTKCPGIFEEDNFFSVSPKRRKNLFEKYGKTDLGKPARVPSPKKSLSSTIKSPPSRVKLPTSILSKSPPLKVPNKNRSSTFSPLRTPTSSSKTFVIVDHSTPSPPSIRTKLEAFAPNSTFATQKRLRRLATLESSPALRSTLKSLQSKSSPVKLLKLKEEKAKIKNQLFKSEEEKDPVGKQKLPLESSLSPLDHSSAEKEMQKAPAKNKRRRTGSLETGLYPKESPTPSKKRSKRVLWSLKHIVSPGNREKHSLNSTPESIMKKDTKWPQNLAKNNINSEPNTPTKSNIDTGKAHSARAHKTRKNIQS
